Measured values from PMC8369199.

Target: cetuximab (human)
Assay: BLI; cetuximab (20 µg/ml) immobilised on Fab2G sensors; scFv hFc4 25 to 200 nM in kinetics buffer; 1:1 Langmuir model

Kd: 20.5 nM
B1: humanized scFv hFc4 (scFv, V domains shown)
VH: EVQLLESGGGLVQPGGSLRLSCAASGFTFSSYAMNWVRQAPGKGLEFVAGINAAGSGANYAPAVKGRATISRDNSPNTVYLQMNSLRAEDTAVYYCAKGSGSCNHCGGGHGGMIDEWGQGTLVTVSS
VL: SYELMQPPSVSVSPGQTARITCSGGSSTYYGWYQQKPGQAPVTVIYWDDERPSGIPERFSGSSSGNTVTLTINGVQAEDEADYYCGGYDSSVGIFGGGTKLTVL
